From US20190135918A1 (ICHNOS SCIENCES, published 2019)
Read-outs that look alike come from different tables or passages of the source.

Key:
[1] = target: T1, soluble extracellular region of cynomolgus monkey CD38 antigen fused to a 6-His-tag (cynomolgus monkey, UniProt Q5VAN0 45-301); test: SPR
T1 construct: also called cynomolgus CD38

[2] = target: T2, soluble extracellular region of human CD38 fused to a 6-His-tag (human, UniProt P28907 43-300); test: SPR
T2 construct: Expressed with the murine VJ2C leader; also called human CD38 protein; human CD38 antigen

[3] = target: T2, soluble extracellular region of human …; test: SPR, antibody captured on protein G, CD38 injected
[4] = target: T3, human CD3 epsilon on cells (human, UniProt P07766 23-207); test: FACS staining of HPB-ALL cells, human IgG1 format, graded relative to chimeric OKT3
T3 construct: whole, on cells; On cells it stands in the CD3/TCR complex; also called HPB-ALL cells (human CD3 epsilon positive T cell tumour line); CD3 on human T cells
Description: (§1) HPB-ALL cells (DSMZ, Braunschweig, Germany, Cat. No: ACC483) were used as CD3 positive cell line for FACS staining. […] After washing, cells were incubated with a 1/200 dilution of anti-Human Fc-PE (EBioscience, Vienna, Austria) for 45 min on ice. Cells were then washed again and resuspended in 200 ul FACS buffer.

[5] = target: T3, human CD3 epsilon on cells; test: as above; remark: listed apart in the source
Description: as §1

| Binder | binding result [4] | binding result [5] | further results |
| --- | --- | --- | --- |
| humanized 9G7 best-fit antibody (antibody, human IgG1, kappa, V domains shown, Human IgG1; light chain carries the F36Y back mutation (Kabat); also called 9G7 best-fit F36Y humanized variant) VH: QVTLKESGPTLVKPTQTLTLTCTFSGLSLSTSGKGVGWIRQPPGKALEWLAHIWWDDDKRYNPALKSRLTITKDTSKNQVVLTMTNMDPVDTATYYCARIELGRSYVMDYWGQGTLVTVSS VL: DIQMTQSPSSLSASVGDRVTITCQASQDVITSVAWYQQKPGKAPKLLIYSASYRYTGVPSRFSGSGSGTDFTFTISSLQPEDIATYYCQQHYTIPLTFGQGTKLEIKR |  |  | Kd [1]: 3.2 nM; fold improvement of affinity over the first prototype [2]: 2 fold; Kd [3]: 0.5 nM |
| first humanized 9G7 antibody prototype (best-fit approach, post CDR grafting) (antibody, human IgG1, kappa, V domains shown, Human IgG1 isotype; also called first antibody prototype; first humanized prototype) VH: QVTLKESGPTLVKPTQTLTLTCTFSGLSLSTSGKGVGWIRQPPGKALEWLAHIWWDDDKRYNPALKSRLTITKDTSKNQVVLTMTNMDPVDTATYYCARIELGRSYVMDYWGQGTLVTVSS VL: DIQMTQSPSSLSASVGDRVTITCQASQDVITSVAWFQQKPGKAPKLLIYSASYRYTGVPSRFSGSGSGTDFTFTISSLQPEDIATYYCQQHYTIPLTFGQGTKLEIKR |  |  | Kd [2]: 1 nM; fold lower binding than the mouse parental antibody [2]: 3 fold |
| humanized 9G7 best-framework antibody (antibody, human IgG1, kappa, V domains shown, Human IgG1) VH: EVQLVESGGGLVQPGGSLRLSCAFSGLSLSTSGKGVGWIRQAPGKGLEWLAHIWWDDDKRYNPALKSRLTISKDTSKNTVYLQMNSLRAEDTAVYYCARIELGRSYVMDYWGQGTLVTVSS VL: DIQMTQSPSSLSASVGDRVTITCRASQDVITSVAWFQQKPGKAPKLLIYSASYRYTGVPSRFSGSGSGTDFTLTISSLQPEDFATYYCQQHYTIPLTFGQGTKVEIKR |  |  | Kd [1]: 1 nM; Kd [3]: 0.4 nM |
| VH5/VL3 (antibody, human IgG1, kappa, V domains shown, human IgG1; also called humanized OKT3 VH5/VL3 antibody; copies: 2 + 2) VH: EVQLVESGGGLVQPGGSLRLSCAASGYTFTRYTMHWVRQAPGKGLEWVGYINPSRGYTRYADSVKGRFTLSTDKSKNTAYLQMNSLRAEDTAVYYCARYYDDHYCLDYWGQGTLVTVSS VL: DIQLTQSPSSLSASVGDRVTITCRASSSVSYVAWYQQKPGKAPKLLIYDTSKLYSGVPSRFSGSRSGTDYTLTISSLQPEDFATYYCQQWSSNPPTFGQGTKVEIKR | binds |  |  |
| humanized OKT3 VH11/VL4 antibody (antibody, human IgG1, V domains shown, Human IgG1; copies: 2 + 2) VH: EVQLVESGGGLVQPGGSLRLSCAASGYTFTRYTMHWVRQAPGKGLEWIGYINPSRGYTYYADSVKGRFTLSTDKSKNTAYLQMSSLRAEDTAVYYCARYYDDHYCLDYWGQGTLVTVSS VL: DIQLTQSPSSLSASVGDRVTITCRASSSVSYVAWYQQKPGKAPKRWIYDTSKLYSGVPSRFSGSRSGTDYTLTISSLQPEDFATYYCQQWSSNPPTFGQGTKVEIKR |  | binds |  |
| humanized OKT3 VH8/VL4 antibody (antibody, human IgG1, V domains shown, Human IgG1; copies: 2 + 2) VH: EVQLVESGGGLVQPGGSLRLSCAASGYTFTRYTMHWVRQAPGKGLEWIGYINPSRGYTYYADSVKGRFTLSTDKSKNTAYLQMNSLRAEDTAVYYCARYYDDHYCLDYWGQGTLVTVSS VL: DIQLTQSPSSLSASVGDRVTITCRASSSVSYVAWYQQKPGKAPKRWIYDTSKLYSGVPSRFSGSRSGTDYTLTISSLQPEDFATYYCQQWSSNPPTFGQGTKVEIKR |  | binds |  |
| VH5/VL6 (antibody, human IgG1, kappa, V domains shown, human IgG1; also called humanized OKT3 VH5/VL6 antibody; copies: 2 + 2) VH: EVQLVESGGGLVQPGGSLRLSCAASGYTFTRYTMHWVRQAPGKGLEWVGYINPSRGYTRYADSVKGRFTLSTDKSKNTAYLQMNSLRAEDTAVYYCARYYDDHYCLDYWGQGTLVTVSS VL: DIQLTQSPSSLSASVGDRVTITCRASSSVSYVAWYQQKPGKAPKRWIYDTSKLYSGVPSRFSGSRSGTDYTLTISSLQPEDFATYYCQQWSSNPFTFGQGTKVEIKR | binds |  |  |
| VH5/VL4 (antibody, human IgG1, kappa, V domains shown, human IgG1; also called humanized OKT3 VH5/VL4 antibody; copies: 2 + 2) VH: EVQLVESGGGLVQPGGSLRLSCAASGYTFTRYTMHWVRQAPGKGLEWVGYINPSRGYTRYADSVKGRFTLSTDKSKNTAYLQMNSLRAEDTAVYYCARYYDDHYCLDYWGQGTLVTVSS VL: DIQLTQSPSSLSASVGDRVTITCRASSSVSYVAWYQQKPGKAPKRWIYDTSKLYSGVPSRFSGSRSGTDYTLTISSLQPEDFATYYCQQWSSNPPTFGQGTKVEIKR | binds |  |  |
| VH9/VL8 (antibody, human IgG1, kappa, V domains shown, human IgG1; also called humanized OKT3 VH9/VL8 antibody; copies: 2 + 2) VH: EVQLVESGGGLVQPGGSLRLSCAASGYTFTRYTMHWVRQAPGKGLEWIGYINPSRGYTYYADSVKSRFTLSTDKSKNTAYLQMNSLRAEDTAVYYCARYYDDHYCLDYWGQGTLVTVSS VL: DIQLTQSPSSLSASVGDRVTITCRASSSVSYVAWYQQKPGKAPKRWIYDTSKLYSGVPSRFSGSGSGTDYTLTISSLQPEDFATYYCQQWSSNPPTFGQGTKVEIKR |  | binds |  |
| VH6/VL4 (antibody, human IgG1, kappa, V domains shown, human IgG1; also called humanized OKT3 VH6/VL4 antibody; copies: 2 + 2) VH: EVQLVESGGGLVQPGGSLRLSCAASGYTFTRYTMHWVRQAPGKGLEWIGYINPSRGYTRYADSVKGRFTLSTDKSKNTAYLQMNSLRAEDTAVYYCARYYDDHYCLDYWGQGTLVTVSS VL: DIQLTQSPSSLSASVGDRVTITCRASSSVSYVAWYQQKPGKAPKRWIYDTSKLYSGVPSRFSGSRSGTDYTLTISSLQPEDFATYYCQQWSSNPPTFGQGTKVEIKR | binds |  |  |
| VH10/VL8 (antibody, human IgG1, kappa, V domains shown, human IgG1; also called humanized OKT3 VH10/VL8 antibody; copies: 2 + 2) VH: EVQLVESGGGLVQPGGSLRLSCAASGYTFTRYTMHWVRQAPGKGLEWIGYINPSRGYTYYADSVKSRATLSTDKSKNTAYLQMNSLRAEDTAVYYCARYYDDHYCLDYWGQGTLVTVSS VL: DIQLTQSPSSLSASVGDRVTITCRASSSVSYVAWYQQKPGKAPKRWIYDTSKLYSGVPSRFSGSGSGTDYTLTISSLQPEDFATYYCQQWSSNPPTFGQGTKVEIKR |  | binds |  |
| VH10/VL4 (antibody, human IgG1, kappa, V domains shown, human IgG1; also called humanized OKT3 VH10/VL4 antibody; copies: 2 + 2) VH: EVQLVESGGGLVQPGGSLRLSCAASGYTFTRYTMHWVRQAPGKGLEWIGYINPSRGYTYYADSVKSRATLSTDKSKNTAYLQMNSLRAEDTAVYYCARYYDDHYCLDYWGQGTLVTVSS VL: DIQLTQSPSSLSASVGDRVTITCRASSSVSYVAWYQQKPGKAPKRWIYDTSKLYSGVPSRFSGSRSGTDYTLTISSLQPEDFATYYCQQWSSNPPTFGQGTKVEIKR |  | binds |  |
| VH6/VL6 (antibody, human IgG1, kappa, V domains shown, human IgG1; also called humanized OKT3 VH6/VL6 antibody; copies: 2 + 2) VH: EVQLVESGGGLVQPGGSLRLSCAASGYTFTRYTMHWVRQAPGKGLEWIGYINPSRGYTRYADSVKGRFTLSTDKSKNTAYLQMNSLRAEDTAVYYCARYYDDHYCLDYWGQGTLVTVSS VL: DIQLTQSPSSLSASVGDRVTITCRASSSVSYVAWYQQKPGKAPKRWIYDTSKLYSGVPSRFSGSRSGTDYTLTISSLQPEDFATYYCQQWSSNPFTFGQGTKVEIKR | binds |  |  |
| VH6/VL8 (antibody, human IgG1, kappa, V domains shown, human IgG1; also called humanized OKT3 VH6/VL8 antibody; copies: 2 + 2) VH: EVQLVESGGGLVQPGGSLRLSCAASGYTFTRYTMHWVRQAPGKGLEWIGYINPSRGYTRYADSVKGRFTLSTDKSKNTAYLQMNSLRAEDTAVYYCARYYDDHYCLDYWGQGTLVTVSS VL: DIQLTQSPSSLSASVGDRVTITCRASSSVSYVAWYQQKPGKAPKRWIYDTSKLYSGVPSRFSGSGSGTDYTLTISSLQPEDFATYYCQQWSSNPPTFGQGTKVEIKR |  | binds |  |
| VH7/VL4 (antibody, human IgG1, kappa, V domains shown, human IgG1; also called humanized OKT3 VH7/VL4 antibody; copies: 2 + 2) VH: EVQLVESGGGLVQPGGSLRLSCAASGYTFTRYTMHWVRQAPGKGLEWVGYINPSRGYTNYADSVKGRFTLSTDKSKNTAYLQMNSLRAEDTAVYYCARYYDDHYCLDYWGQGTLVTVSS VL: DIQLTQSPSSLSASVGDRVTITCRASSSVSYVAWYQQKPGKAPKRWIYDTSKLYSGVPSRFSGSRSGTDYTLTISSLQPEDFATYYCQQWSSNPPTFGQGTKVEIKR |  | binds |  |
| VH6/VL5 (antibody, human IgG1, kappa, V domains shown, human IgG1; also called humanized OKT3 VH6/VL5 antibody; copies: 2 + 2) VH: EVQLVESGGGLVQPGGSLRLSCAASGYTFTRYTMHWVRQAPGKGLEWIGYINPSRGYTRYADSVKGRFTLSTDKSKNTAYLQMNSLRAEDTAVYYCARYYDDHYCLDYWGQGTLVTVSS VL: DIQLTQSPSSLSASVGDRVTITCRASSSVSYMNWYQQKPGKAPKLLIYDTSKLYSGVPSRFSGSRSGTDYTLTISSLQPEDFATYYCQQWSSNPPTFGQGTKVEIKR | binds |  |  |
| chimeric HB-7 antibody (antibody, human IgG1, kappa, V domains shown) VH: KVQLQESGPSLVQPSQRLSITCTVSGFSLISYGVHWVRQSPGKGLEWLGVIWRGGSTDYNAAFMSRLSITKDNSKSQVFFKMNSLQADDTAIYFCAKTLITTGYAMDYWGQGTTVTVSS VL: DIELTQSPSSFSVSLGDRVTITCKASEDIYNRLAWYQQKPGNAPRLLISGATSLETGVPSRFSGSGSGKDYTLSITSLQTEDVATYYCQQYWSTPTFGGGTKLEIKR |  |  | Kd [3]: 2.5 nM |
| humanized HB-7 best-fit antibody (antibody, human IgG1, kappa, V domains shown, Human IgG1 format) VH: QVQLQESGPGLVKPSETLSLTCTVSGFSLISYGVHWVRQPPGKGLEWLGVIWRGGSTDYNAAFMSRLTISKDNSKNQVSLKLSSVTAADTAVYFCAKTLITTGYAMDYWGQGTLVTVSS VL: DIQLTQSPSSLSASVGDRVTITCRASEDIYNRLAWYQQKPGKAPKLLISGATSLETGVPSRFSGSGSGKDYTLTISSLQPEDFATYYCQQYWSTPTFGQGTKLEIKR |  |  | Kd [3]: 3.6 nM |
